Here are results for one molecule from patent publication EP4011904A1 (Bayer Aktiengesellschaft, dated 2022).

Common to all, as to assay: cell-based or functional assay
Assay [1] concerns the target T1, recombinant rat MASP1 (amino acids 302-704, C-terminal His Tag) (rat, UniProt Q8CHN8 302-704).
T1 sequence: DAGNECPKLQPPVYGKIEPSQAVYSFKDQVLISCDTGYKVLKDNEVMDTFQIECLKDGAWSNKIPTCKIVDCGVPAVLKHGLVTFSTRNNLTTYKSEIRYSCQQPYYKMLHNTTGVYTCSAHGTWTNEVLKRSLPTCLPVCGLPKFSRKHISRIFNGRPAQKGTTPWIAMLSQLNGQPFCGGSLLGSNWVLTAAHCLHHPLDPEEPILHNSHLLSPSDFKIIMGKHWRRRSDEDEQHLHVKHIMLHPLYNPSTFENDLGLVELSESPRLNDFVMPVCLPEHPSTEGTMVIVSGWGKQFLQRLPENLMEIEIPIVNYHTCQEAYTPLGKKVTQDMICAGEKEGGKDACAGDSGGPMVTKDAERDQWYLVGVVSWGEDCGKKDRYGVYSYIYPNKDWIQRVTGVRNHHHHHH

Assay [2] deals with recombinant rat MASP2 (amino acids 296-685, C-terminal His Tag) (rat, UniProt Q9JJS8 296-685).
Assay [3] deals with T2, recombinant human MASP1 (amino acids 297-699, C-terminal His Tag) (human, UniProt P48740 297-699).
T2 sequence: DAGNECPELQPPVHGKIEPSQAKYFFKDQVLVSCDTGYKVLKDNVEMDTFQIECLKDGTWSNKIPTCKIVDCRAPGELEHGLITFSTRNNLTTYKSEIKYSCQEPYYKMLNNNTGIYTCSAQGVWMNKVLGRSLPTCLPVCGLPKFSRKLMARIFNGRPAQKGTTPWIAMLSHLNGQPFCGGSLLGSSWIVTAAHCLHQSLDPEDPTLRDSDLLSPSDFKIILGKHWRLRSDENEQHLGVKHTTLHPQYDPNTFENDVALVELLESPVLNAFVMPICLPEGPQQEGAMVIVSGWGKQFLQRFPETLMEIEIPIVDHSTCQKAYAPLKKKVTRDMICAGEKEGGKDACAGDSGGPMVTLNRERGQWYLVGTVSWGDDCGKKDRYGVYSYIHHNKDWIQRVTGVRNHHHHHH

Assay [4] concerns the target recombinant human MASP2 (amino acids 297-686, C-terminal His Tag) (human, UniProt O00187 297-686).

Positions of bridges follow the written chain, without caps; N, C: chain ends.

recombinant human MASP2 (amino acids 297-686, C-terminal His Tag), sequence (O00187 other isoform, or with tags, fused parts or gaps limits assumed, form in doubt): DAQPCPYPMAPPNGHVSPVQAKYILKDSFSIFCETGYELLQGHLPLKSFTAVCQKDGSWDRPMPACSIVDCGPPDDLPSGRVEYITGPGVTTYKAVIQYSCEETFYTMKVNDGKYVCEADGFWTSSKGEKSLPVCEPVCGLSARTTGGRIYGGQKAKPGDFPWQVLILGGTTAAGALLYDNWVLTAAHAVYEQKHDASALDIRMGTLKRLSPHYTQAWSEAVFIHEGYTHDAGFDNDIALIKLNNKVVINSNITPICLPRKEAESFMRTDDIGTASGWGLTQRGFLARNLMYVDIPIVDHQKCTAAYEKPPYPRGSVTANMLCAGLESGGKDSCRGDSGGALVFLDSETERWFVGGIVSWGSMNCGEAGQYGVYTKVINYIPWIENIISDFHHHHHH
recombinant rat MASP2 (amino acids 296-685, C-terminal His Tag), sequence (Q9JJS8 other isoform, or with tags, fused parts or gaps limits assumed, form in doubt): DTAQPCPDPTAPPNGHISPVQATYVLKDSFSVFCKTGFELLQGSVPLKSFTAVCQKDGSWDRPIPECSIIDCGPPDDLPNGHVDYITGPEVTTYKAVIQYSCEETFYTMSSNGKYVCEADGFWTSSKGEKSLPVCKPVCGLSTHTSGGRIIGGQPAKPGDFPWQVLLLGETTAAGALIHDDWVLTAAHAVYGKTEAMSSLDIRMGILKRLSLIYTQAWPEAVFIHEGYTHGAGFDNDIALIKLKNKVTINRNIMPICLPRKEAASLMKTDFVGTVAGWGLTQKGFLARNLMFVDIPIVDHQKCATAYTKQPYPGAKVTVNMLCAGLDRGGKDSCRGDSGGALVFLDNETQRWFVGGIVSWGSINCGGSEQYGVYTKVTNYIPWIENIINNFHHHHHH

Turning to cyclo(GRCTKSIPPICFPD) (disulfide 3-11; also: TFA salt) [Bicyclic SFTI-1: G**RC+TKSIPPIC+FPD**], the “rat MASP1 IC50” value in assay [1] came to 1000 nM. The “rat MASP2 IC50” value in assay [2] came out at 1000 nM. For the same molecule, the “human MASP1 IC50” value in assay [3] is > 3000 nM. Moreover, the “human MASP2 IC50” value in assay [4] is > 3000 nM.
